± gives the standard deviation.
Assay: protein stability index of a GFP-peptide fusion (GPS, HEK-293T) (PSI 1-6); higher = more stable
Conditions: c terminus: a fixed tail appended
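Further: 24-mer peptide tiles fused after GFP, lentivirally expressed, FACS-sorted into six equal bins by GFP/DsRed ratio, decoded by Illumina sequencing, PSI is the read-weighted mean bin number.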

Row | Sequence | protein stability index (treatment: DMSO) | protein stability index (treatment: MLN4924 1 uM, 8 h)
1 | GSAAKLVCYFTNWAQYRQGEARFL [CHIT1] | 2.1 ± 0.36 | 2.23 ± 0.18
2 | FSKSKELHPDRDPGNPSLHSRFVE [DNAJC4] | 3.91 ± 0.25 | 4.22 ± 0.12
3 | TCQRVNGIKVQNGGIVTDTPASNH [SLC19A2] | 4.08 ± 0.34 | 4.22 ± 0.17
4 | VEGRHLYVLEFSDHPGIHEPLEPE [CPN1] | 3.04 ± 0.23 | 3.28 ± 0.33
5 | ELLVAHAYTRYLGDLSGGQVLKKI [HMOX1] | 2.23 ± 0.86 | 2.32 ± 0.3
6 | RYHVIRKLGWGHFSTVWLCWDMQG [SRPK2] | 2.83 ± 0.74 | 2.69 ± 0.27
7 | DYCKGGYHPVKIGDLFNGRYHVIR [SRPK2] | 1.99 ± 0.32 | 2.23 ± 0.25
8 | RTSVGVAVLGGFLYAVGGQDGVSC [KLHL20] | 2.37 ± 0.17 | 2.45 ± 0.38
9 | LGQQQRDMRRDEEGSLCAAHLPKA [FBF1] | 4.97 ± 0.35 | 5.11 ± 0.16
10 | AWEKLLAAFPNLANLSRTQLLHLG [KLHDC10] | 2.06 ± 0.27 | 2.1 ± 0.11
11 | QGEEVAQRSTVFKTTIPEEEEEEE [LMNB1] | 5.63 ± 0.19 | 5.64 ± 0.25
12 | EADGSTNNGIFQINSRRWCSNLTP [SPACA3] | 3.43 ± 0.33 | 3.66 ± 0.32
13 | SVSRFFADSGADPKGEPGSKQSPP [FBF1] | 5.09 ± 0.2 | 5.14 ± 0.14
14 | PELRQLVLSLLSLEPAQRPPLSHI [NEK8] | 2.56 ± 0.41 | 2.47 ± 0.46
15 | NKTQQVIHIIDFGLAKEYIDPETK [CSNK1G3] | 2.48 ± 0.52 | 2.47 ± 0.41
16 | LIPQPLDSEEDEKMEEDIKEEEEK [PCMTD1] | 5.66 ± 0.23 | 5.67 ± 0.22
17 | DRTAIRSDTTHLVTLGGVLRQQLV [KLHL13] | 2.61 ± 0.28 | 2.73 ± 0.22
18 | IDKNRRKSCQACRLRKCYEVGMVK [ESR2] | 2.75 ± 0.34 | 3.08 ± 0.17
19 | ASKWGMSYDELCFLEQRPQSPTLE [EDARADD] | 3.67 ± 0.12 | 3.81 ± 0.062
20 | LLTFQQITTVSKAKGASLFTCDLQ [VPS39] | 2.14 ± 0.2 | 2.07 ± 0.27
21 | TSQKIAARAFAQRYLADLLPSVFG [RSPH3] | 2.12 ± 0.56 | 2.09 ± 0.18
22 | EFDSEHNLTSNEGHSLKNLEHRLN [RASAL3] | 4.82 ± 0.49 | 4.67 ± 0.49
23 | EWELLDPTQKALYNDVMQENYETV [ZNF75A] | 4.77 ± 0.086 | 4.98 ± 0.19

Row | Sequence | protein stability index (treatment: DMSO) | protein stability index (treatment: MLN4924 1 uM, 8 h)
24 | SQIETLTSVFQKKLCTAHMCSTLE [MATN2] | 2.03 ± 0.2 | 2.81 ± 0.74
25 | RPPFGAAAVPGTQLSPSPTPASQS [SNAP91] | 4.79 ± 0.16 | 4.86 ± 0.055
26 | DGLDGISVGSYLDTLADDVPGHQT [LURAP1L] | 5.12 ± 0.27 | 4.86 ± 0.22
27 | VCEHLNLLEKDYFGLTYRDAENQK [EPB41L3] | 4.91 ± 0.31 | 4.69 ± 0.23
28 | TMLAGHYPFQDSEPVLLFGKIRRG [TRIB3] | 2.56 ± 0.16 | 2.77 ± 0.25
29 | RPPLRRVRMSADAMLKALLGSKHK [TNNI2] | 3.01 ± 0.28 | 3.21 ± 0.29
30 | FNKPSRVPAPEAFRDPIWSTWALY [MYORG] | 2.23 ± 0.46 | 2.25 ± 0.47
31 | VQHERIHTGDKPYKCAECGKSFCH [ZNF8] | 4.54 ± 0.33 | 4.68 ± 0.16
32 | TISFLGCAIQMFSFLFLGCSHSFL [OR10K2] | 3.14 ± 0.41 | 3.6 ± 0.52
33 | LYYFRLAARSPQGLGASTAEISAR [PTPRD] | 2.34 ± 0.42 | 2.33 ± 0.39
34 | QCRDLVDEAKKFHLRPELRSQMQG [KLHL12] | 3.38 ± 0.18 | 3.53 ± 0.13
35 | RNHMENGGDHRYVNNYTNSFGGEW [TRIM29] | 3.13 ± 0.16 | 3.15 ± 0.2
36 | ESSDLQMDVMPGEGDLPQMEVGSG [EID1] | 5.42 ± 0.15 | 5.21 ± 0.3
37 | NGISPIIIDNTNLHAWEMKPYAVM [N4BP2L1] | 2.46 ± 0.37 | 2.01 ± 0.25
38 | FRTDPEAKVKLVFVEDQAVVETVF [ZSWIM9] | 2.46 ± 0.38 | 2.5 ± 0.32
39 | IFGDLCGNMANLSLHDHDGSSGAS [DVL3] | 3.9 ± 0.45 | 4.27 ± 0.17
40 | ERKNAEMYKLSSEQFHEAASKMES [CHCHD6] | 4.83 ± 0.27 | 5.08 ± 0.16
41 | TQPPDESCSQNLLITQQIIPVLYC [P2RY14] | 2.28 ± 0.25 | 2.23 ± 0.22
42 | RDQQVEAAQRALVEVLGPYEPLLS [RETREG3] | 3.9 ± 0.17 | 4.14 ± 0.17
43 | FELQRLEFDLSPLNLDIGQVYKET [AASDHPPT] | 2.42 ± 0.092 | 2.29 ± 0.62
44 | AEFQSLFSLLEELKEGMLMKIKQD [FSD1] | 2.21 ± 0.36 | 2.33 ± 0.2
45 | KDGVADSTVISSMPCLLMELRRDS [C18orf25] | 3.25 ± 0.15 | 3.42 ± 0.35
46 | NTRVRELAQAAGFAPQTGARPSET [DNAAF3] | 4.71 ± 0.11 | 4.79 ± 0.25

Row | Sequence | protein stability index (treatment: DMSO) | protein stability index (treatment: MLN4924 1 uM, 8 h)
47 | MDALQLANSAFAVDLFKQLCEKEP [SERPINB5] | 3.5 ± 0.36 | 3.53 ± 0.16
48 | SVYAWGGGLGTPLRLPMLNTEVVQ [NEK8] | 2.63 ± 0.39 | 2.69 ± 0.32
49 | SWLDVQVSNTYVKQKTSAALSTMG [TPD52L3] | 2.79 ± 0.27 | 2.47 ± 0.22
50 | RRRGSDPASGEVEASQLRRLNIKK [TMEM40] | 5.26 ± 0.23 | 5.02 ± 0.24
51 | DPSNRSFFSEIISSVSDVKFSHSG [PPP2R2C] | 3.43 ± 0.25 | 3.44 ± 0.29
52 | ETELALVKESGERKVTDSISKSLE [DLC1] | 5.56 ± 0.35 | 5.13 ± 0.44
53 | ETVSPLPSSMDLLIQDSPDSSTSP [NANOGP8] | 5.45 ± 0.37 | 5.45 ± 0.25
54 | ASRVKLQHLPAQEQWDRLLVLYPT [PLEKHN1] | 2.21 ± 0.14 | 2.41 ± 0.35
55 | FWRDWEDYAHGFGNISGEFWLGNE [TNXB] | 2.78 ± 0.9 | 2.46 ± 0.51
56 | HLQHKLICTRKPEEIRGGGLLKYC [TENT5D] | 2.21 ± 0.39 | 2.88 ± 0.095
57 | SFTSSDKTIKSFFPHSGKDCLLCF [C8orf76] | 2.47 ± 0.51 | 1.9 ± 0.44
58 | GSPSRPLSRRQLCPLTPGPGKALG [C2CD2L] | 3.81 ± 0.35 | 4.11 ± 0.11
59 | VSVFIGVLIDLWKITKVMDVRLDR [CLPTM1] | 3.19 ± 0.1 | 2.97 ± 0.35
60 | NVDDPTGAHSNAPITAHAEVEVVE [CSNK1G1] | 5.35 ± 0.61 | 5.39 ± 0.47
61 | LLEKVPCTLEQDHFKKQTIYRFLK [FEM1C] | 2.38 ± 0.83 | 2.31 ± 0.23
62 | PSPTSPPPPELMDVSLVGGPADCS [DYRK1B] | 5.09 ± 0.1 | 5.14 ± 0.22
63 | IPHTHLLATLDPLALDREPPPHLL [WDR88] | 3.23 ± 0.12 | 3.26 ± 0.14
64 | LRQQQHKQNKQVLGYCLLLMLAGM [DNAJC4] | 2.28 ± 0.48 | 2.41 ± 0.18
65 | QADTVHSNPELDVLLLGSVDGRHL [DNAAF3] | 3.77 ± 0.4 | 4 ± 0.3
66 | GIEEVTYENCLQALADVEVKYIVE [NLN] | 3.29 ± 0.37 | 3.34 ± 0.34
67 | LSANLHGGAVVANYPYDKSFEHRV [CPN1] | 3.46 ± 0.27 | 3.5 ± 0.28
68 | KYDPKTQEWSFLPSITRKRRYVAS [KLHL12] | 3.15 ± 0.4 | 2.93 ± 0.27
69 | SWSALWNITDETPDNCEMFLNFNG [ZER1] | 2.61 ± 0.25 | 2.79 ± 0.23

Row | Sequence | protein stability index (treatment: DMSO) | protein stability index (treatment: MLN4924 1 uM, 8 h)
70 | SPFSVHPKTGRISVPIDLQKVDQF [PRIM1] | 3.18 ± 0.59 | 3.42 ± 0.37
71 | ACYAGAAPAPSQVKSKAKKTVDKH [CEBPB] | 4.95 ± 0.33 | 5.09 ± 0.39
72 | GATAASETLSGHGPLAQPLTLQVL [ADAMTS4] | 3.28 ± 0.29 | 3.19 ± 0.36
73 | MSSVQQQPPPPRRVTNVGSLLLTP [WASL] | 3.7 ± 0.28 | 3.75 ± 0.3
74 | RQAELAIERCIFPERIYQGSSGSY [PI4K2A] | 2.72 ± 0.39 | 2.82 ± 0.28
75 | RKMEVEELSPLALGRFSLTPAEGD [CDC25B] | 4.66 ± 0.36 | 4.79 ± 0.13
76 | KVYPVQEALAVLEPYARLPPHKHV [TRIB3] | 3.02 ± 0.26 | 3.09 ± 0.15
77 | YLGSLQYRVWKKMLASVESVPFSF [TRIM35] | 2.93 ± 0.63 | 2.33 ± 0.48
78 | ICEDSFDGRSLSKLNLCEDGPCHK [SCARA5] | 4.55 ± 0.15 | 4.57 ± 0.16
79 | SVGSYLDTLADDVPGHQTPSDLDQ [LURAP1L] | 5.28 ± 0.23 | 5.34 ± 0.24
80 | VVLGNIIKKKGWRRSSLVITTKIF [KCNAB2] | 2.86 ± 0.34 | 2.74 ± 0.55
81 | HSGFEDELSEVLENQSSQAELKEA [CHGA] | 5.5 ± 0.29 | 5.27 ± 0.33
82 | LVENAKNFPQCVLEISDQEVLEWY [EFHC1] | 2.96 ± 0.23 | 2.87 ± 0.23
83 | FVLAEDGRRCKKCTEGPIDLVFVI [MATN2] | 3.06 ± 0.44 | 2.5 ± 0.31
84 | LEISGIIMSRVNAYQQGVGYQMLG [PHTF1] | 2.81 ± 0.35 | 2.63 ± 0.51
85 | TTRHGEVGSALHRESFTSRQKTSG [C10orf62] | 4.75 ± 0.38 | 4.78 ± 0.083
86 | RQNSAPARMLSSNERDSSEPGNFI [CDC25A] | 5.54 ± 0.31 | 5.45 ± 0.14
87 | QMPTEIEFPESRKPISTKSQFLKH [ZNF649] | 4.16 ± 0.19 | 4.26 ± 0.19
88 | TLQELLARDTVQVELIPEKKGLFL [SNX8] | 2.47 ± 0.62 | 2.41 ± 0.43
89 | WAEIAKMLPGRTDNAVKNHWNSTI [MYBL2] | 2.18 ± 0.28 | 2.16 ± 0.18

Reference: the supplement of paper PMC10567573
